Experimental data: patent publication US20240092942A1

What was measured:
[1] = biological target: huEGFR on the cell surface (3T3^huEGFR, wild-type HEK293 (EGFR+), A431 cells) (human) (UniProt P00533); assay: flow cytometry on 3T3^huEGFR cells, PE-conjugated anti-huEGFR mAb; second number of the panel, given to the second cell line of the key (narrow histogram) [cont.) g, upper panel]
[2] = biological target: huEGFR on the cell surface (3T3^huEGFR, wild-type HEK293 (EGFR+), A431 cells) (human) (UniProt P00533); assay: flow cytometry on 3T3^huEGFR cells, PE-conjugated anti-huEGFR mAb; histogram peak at about 2e3; parental 3T3 cells: 176 printed
[3] = biological target: huEGFR on the cell surface (3T3^huEGFR, wild-type HEK293 (EGFR+), A431 cells) (human) (UniProt P00533); assay: flow cytometry on MDA-MB-231 cells, PE-conjugated anti-huEGFR mAb; first number of the panel, given to the first cell line of the key (broad, most shifted histogram) [cont.) g, upper panel]
[4] = biological target: huFcγRIIb on CHO^huFcγRIIb cells; assay: flow cytometry on CHO^huFcγRIIb cells, anti-huCD32 mAb + PE-GAM F(ab')2; histogram peak at about 1.5e3; parental CHO cells: 86 printed
[5] = biological target: PD-L1 on MDA-MB-231 cells (Homo sapiens) (UniProt Q9NZQ7); assay: flow cytometry on MDA-MB-231 cells, APC-conjugated anti-huPD-L1 mAb; histogram peak at about 3e3 against control at about 2.5e2; 3T3^huEGFR cells (PD-L1 negative): 0 printed [cont.) g, lower panel]
Chain of PD-L1 on MDA-MB-231 cells (Homo sapiens) (Q9NZQ7 19-290 limits assumed): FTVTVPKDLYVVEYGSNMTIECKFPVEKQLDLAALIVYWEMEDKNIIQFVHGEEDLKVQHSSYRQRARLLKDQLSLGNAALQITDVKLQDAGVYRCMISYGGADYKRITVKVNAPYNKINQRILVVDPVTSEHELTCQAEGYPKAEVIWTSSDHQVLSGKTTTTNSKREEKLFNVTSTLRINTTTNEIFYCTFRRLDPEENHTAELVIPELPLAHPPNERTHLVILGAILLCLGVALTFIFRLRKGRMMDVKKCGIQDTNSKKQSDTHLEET

anti-huEGFR PE-conjugated mAb (clone EGFR.1); the sheet prints only the axis label huEGFR (antibody)
MFI [1]: 1820
MFI [2]: 1730
MFI [3]: 5820

anti-huCD32 mAb (clone FUN-2); the sheet prints only the axis label huFcγRIIb (antibody)
MFI [4]: 1040

anti-huPD-L1 APC-conjugated mAb (clone MIH1); the sheet prints only the axis label PD-L1 (antibody)
MFI [5]: 3260
